Sequences and labels used below:
B1: CE115HA000 V95G one-arm antibody (antibody, human IgG1, kappa, L234A L235A, N297A, name in Kabat numbering)
heavy: QVQLVESGGGVVQPGRSLRLSCAASGFTFSNAWMHWVRQAPGKGLEWVAQIKAKSNNYATYYAESVKGRFTISRDDSKNSLYLQMNSLKTEDTAVYYCRYGHYGAYYGVDAWGQGTTVTVSSASTKGPSVFPLAPSSKSTSGGTAALGCLVKDYFPEPVTVSWNSGALTSGVHTFPAVLQSSGLYSLSSVVTVPSSSLGTQTYICNVNHKPSNTKVDKKVEPKSCDKTHTCPPCPAPEAAGGPSVFLFPPKPKDTLMISRTPEVTCVVVDVSHEDPEVKFNWYVDGVEVHNAKTKPREEQYASTYRVVSVLTVLHQDWLNGKEYKCKVSNKALPAPIEKTISKAKGQPREPQVYTLPPSRCELTKNQVSLSCAVKGFYPSDIAVEWESNGQPENNYKTTPPVLDSDGSFFLVSKLTVDKSRWQQGNVFSCSVMHEALHNHYTQKSLSLSPDYKDDDDK
chain: EPKSSDKTHTCPPCPAPELLGGPSVFLFPPKPKDTLMISRTPEVTCVVVDVSHEDPEVKFNWYVDGVEVHNAKTKPREEQYNSTYRVVSVLTVLHQDWLNGKEYKCKVSNKALPAPIEKTISKAKGQPREPQVCTLPPSRDELTKNQVSLWCLVKGFYPSDIAVEWESNGQPENNYKTTPPVLDSDGSFFLYSKLTVDKSRWQQGNVFSCSVMHEALHNRYTQKSLSLSP
light: DIVMTQSPLSLPVTPGEPASISCRSSQSLVHSNRNTYLHWYQQKPGQAPRLLIYKVSNRFSGVPDRFSGSGSGTDFTLKISRVEAEDVGVYYCGQGTQVPYTFGQGTKLEIKRTVAAPSVFIFPPSDEQLKSGTASVVCLLNNFYPREAKVQWKVDNALQSGNSQESVTEQDSKDSTYSLSSTLTLSKADYEKHKVYACEVTHQGLSSPVTKSFNRGEC
B2: CE115HA000 W33A one-arm antibody (antibody, human IgG1, kappa, L234A L235A, N297A, name in Kabat numbering)
heavy: B1 heavy with W33A, G101V
chain: B1 chain
light: B1 light
B3: CE115HA000 W33D one-arm antibody (antibody, human IgG1, kappa, L234A L235A, N297A, name in Kabat numbering)
heavy: B1 heavy with W33D, G101V
chain: B1 chain
light: B1 light
B4: CE115HA000 V95K one-arm antibody (antibody, human IgG1, kappa, L234A L235A, N297A, name in Kabat numbering)
heavy: B1 heavy with G101K
chain: B1 chain
light: B1 light
B5: CE115HA000 V100cE one-arm antibody (antibody, human IgG1, kappa, L234A L235A, N297A, name in Kabat numbering)
heavy: B1 heavy with G101V, V109E
chain: B1 chain
light: B1 light
B6: CE115HA000 V100cP one-arm antibody (antibody, human IgG1, kappa, L234A L235A, N297A, name in Kabat numbering)
heavy: B1 heavy with G101V, V109P
chain: B1 chain
light: B1 light
B7: CE115HA000 V95S one-arm antibody (antibody, human IgG1, kappa, L234A L235A, N297A, name in Kabat numbering)
heavy: B1 heavy with G101S
chain: B1 chain
light: B1 light
B8: CE115HA000 W33H one-arm antibody (antibody, human IgG1, kappa, L234A L235A, N297A, name in Kabat numbering)
heavy: B1 heavy with W33H, G101V
chain: B1 chain
light: B1 light
B9: CE115HA000 W33F one-arm antibody (antibody, human IgG1, kappa, L234A L235A, N297A, name in Kabat numbering)
heavy: B1 heavy with W33F, G101V
chain: B1 chain
light: B1 light
B10: CE115HA000 V100cD one-arm antibody (antibody, human IgG1, kappa, L234A L235A, N297A, name in Kabat numbering)
heavy: B1 heavy with G101V, V109D
chain: B1 chain
light: B1 light

Positions count from the first letter of the chain named. Numbers in names are those of the source.

The experiment deals with T1, CD3ε homodimer protein (human, UniProt P07766 23-126, limits assumed, sulfo-tag or biotin label in the ECL assays; amine-coupled to the chip in SPR).
T1 construct: also called human CD3ε homodimer protein; CD3 (CD3ε)
T1 sequence (P07766 23-126 limits assumed): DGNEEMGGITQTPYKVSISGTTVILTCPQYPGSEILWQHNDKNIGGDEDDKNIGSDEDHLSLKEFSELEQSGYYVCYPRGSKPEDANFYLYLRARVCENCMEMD
Description: SPR Biacore T200; CD3ε homodimer on CM4 chip.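 Also: Single-residue variant antibodies injected as analyte over CD3ε homodimer immobilized by amine coupling, run at 25 °C in HBS-EP+ buffer.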
On to B1, for which the “ratio of amounts bound Z=Y/X (altered form / CE115HA000)” value was 0.19.

In the case of B2, the “ratio of amounts bound Z=Y/X (altered form / CE115HA000)” value worked out at 0.1.

Consider B3, for which the “ratio of amounts bound Z=Y/X (altered form / CE115HA000)” value worked out at 0.1.

Regarding B4, the “ratio of amounts bound Z=Y/X (altered form / CE115HA000)” value stood at 0.64.

In the case of B5, the “ratio of amounts bound Z=Y/X (altered form / CE115HA000)” value was 0.46.

With B6, the “ratio of amounts bound Z=Y/X (altered form / CE115HA000)” value was 0.2.

B7: the “ratio of amounts bound Z=Y/X (altered form / CE115HA000)” value was found to be 0.22.

On to B8, for which the “ratio of amounts bound Z=Y/X (altered form / CE115HA000)” value is 0.13.

B9: the “ratio of amounts bound Z=Y/X (altered form / CE115HA000)” value amounted to 0.65.

In the case of B10, the “ratio of amounts bound Z=Y/X (altered form / CE115HA000)” value is 0.44.

The values are drawn from patent US20260049138A1 (Chugai, published 2026).
